The target in experiment [1] is AtBAG5/Hsc70 complex (AtBAG5-long/Hsp70) (Arabidopsis thaliana | human) (UniProt O65373). The experiment is described as follows: ITC; iTC200, room temperature, 20 mM Tris-HCl pH 7.5, 500 mM NaCl, 5 mM EGTA (apo-CaM, absence of calcium); 0.05-0.1 mM in the cell, 0.5-1.0 mM in the syringe. A general note: In ITC the heat of successive injections is recorded.
The target is the same in experiment [2]. The experiment is described as follows: ITC; iTC200, room temperature, 20 mM Tris-HCl pH 7.5, 500 mM NaCl, 10 mM CaCl2 (holo-CaM, presence of calcium); 0.05-0.1 mM in the cell, 0.5-1.0 mM in the syringe.

In general, Kd refers to the equilibrium constant for the complex coming apart. For the substance “Calmodulin (CaM) (from UniProt P0DP23 1-149) (natural protein)”, the equilibrium dissociation constant (Kd) in experiment [1] came out at 0.39 µM; in experiment [2], 21.2 µM.

The values above are taken from publication PMC4990970.
